# Assay results: ChEMBL document CHEMBL2074368, “Kinetic analysis of calcein and calcein-acetoxymethylester efflux mediated by the multidrug resistance protein and P-glycoprotein” (Biochemistry, 1998)
# Test system: CC(=O)OCOC(=O)CN(CC(=O)OCOC(C)=O)Cc1c(OC(C)=O)ccc2c1Oc1c(ccc(OC(C)=O)c1CN(CC(=O)OCOC(C)=O)CC(=O)OCOC(C)=O)C21OC(=O)c2ccccc21
# Experiment: TP_TRANSPORTER: efflux in K562/ADR cells
# Format: functional, cell-based
substance,measurement,value
ATP-dependent translocase ABCB1 (Homo sapiens),Km,0.12 µM
